Measured values published in patent publication US20200155643.

Target: T1, Recombinant human protein C inhibitor (PCI, SERPINA5), P05154
T1 chain: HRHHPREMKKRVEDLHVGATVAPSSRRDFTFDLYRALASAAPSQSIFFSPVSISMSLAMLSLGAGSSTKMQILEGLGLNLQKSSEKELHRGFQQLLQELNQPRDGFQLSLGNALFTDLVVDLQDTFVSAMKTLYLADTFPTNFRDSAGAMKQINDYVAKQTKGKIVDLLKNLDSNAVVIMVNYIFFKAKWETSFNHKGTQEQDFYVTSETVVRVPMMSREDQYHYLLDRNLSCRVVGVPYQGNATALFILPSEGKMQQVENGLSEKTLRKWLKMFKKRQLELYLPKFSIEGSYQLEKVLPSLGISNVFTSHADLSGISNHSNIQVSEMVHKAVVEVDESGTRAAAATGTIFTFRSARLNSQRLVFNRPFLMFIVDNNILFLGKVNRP

B1: Recombinant human matriptase (protein)
chain: GSDEKDCDCGLRSFTRQARVVGGTDADEGEWPWQVSLHALGQGHICGASLISPNWLVSAAHCYIDDRGFRYSDPTQWTAFLGLHDQSQRSAPGVQERRLKRIISHPFFNDFTFDYDIALLELEKPAEYSSMVRPICLPDASHVFPAGKAIWVTGWGHTQYGGTGALILQKGEIRVINQTTCENLLPQQITPRMMCVGFLSGGVDSCQGDSGGPLSSVEADGRIFQAGVVSWGDGCAQRNKPGVYTRLPLFRDWIKENTGV
  cleavage of PCI (anti-PCI immunoblot): resulted in the appearance of cleaved forms of PCI
